Assay results as given in patent US5834244.

Biological target: rabbit TF-FVIIa in the PT assay (rabbit thromboplastin with rabbit plasma) (rabbit)

| Binder | fold increase of clotting time over baseline, PT assay in rabbit plasma (fold increase over baseline at 50 µM) |
| --- | --- |
| IV-32B (designed binder) VREVCSEQAEPGPCKALMKRWYFDVTEGKCAPFYYGGCYGNRNNFDTEEYCAAVCGSA | 1.2 |
| IV-49C (designed binder) VREVCSEQAEPGPCRALMKRWYFDVTEGKCAPFIYGGCYGNRNNFDTEEYCAAVCGSA | 4.4 |
| IV-54C (designed binder) VREVCSEQAEPGPCRALMKRWYFDVTEGKCAPFVYGGCYGNRNNFDTEEYCAAVCGSA | 3.5 |
